In article PMC8156991, “The Profound Influence of Lipid Composition on the Catalysis of the Drug Target NADH Type II Oxidoreductase” (Membranes, 2021):

Substrate: CC1=CC(=O)c2ccccc2C1=O
Assay: cells, lysate or membranes named
Format: biochemical, Caldalkalibacillus thermarum
Conditions: 33% PG + 67% PE vesicles with 1% menaquinone-7 embedded as shuttle, co-substrate NADH, 20 mM MOPS, 30 mM Na2SO4, pH 7.4, 25 °C, lipid-dependent

B1: CthNDH-2 (Caldalkalibacillus thermarum type II NADH:quinone oxidoreductase) (Caldalkalibacillus thermarum TA2.A1) (protein)
chain: MSKPSIVILGAGYGGIVAALGLQKRLNYNEADITLVNKNDYHYITTELHQPAAGTMHHDQARVGIKELIDEKKIKFVKDTVVAIDREQQKVTLQNGELHYDYLVVGLGSEPETFGIEGLREHAFSINSINSVRIIRQHIEYQFAKFAAEPERTDYLTIVVGGAGFTGIEFVGELADRMPELCAEYDVDPKLVRIINVEAAPTVLPGFDPALVNYAMDVLGGKGVEFKIGTPIKRCTPEGVVIEVDGEEEEIKAATVVWTGGVRGNSIVEKSGFETMRGRIKVDPYLRAPGHENIFIVGDCALIINEENNRPYPPTAQIAIQHGENVAANLAALIRGGSMTPFKPHIRGTVASLGRNDAIGIVGGRKVYGHAASWLKKLIDMRYLYLIGGLSLVLKKGRF
Km: 21.7 µM
